# T1: GST::OsABI5 fusion protein (Oryza sativa subsp. japonica (Rice), UniProt Q8RZ35)
# T1 chain: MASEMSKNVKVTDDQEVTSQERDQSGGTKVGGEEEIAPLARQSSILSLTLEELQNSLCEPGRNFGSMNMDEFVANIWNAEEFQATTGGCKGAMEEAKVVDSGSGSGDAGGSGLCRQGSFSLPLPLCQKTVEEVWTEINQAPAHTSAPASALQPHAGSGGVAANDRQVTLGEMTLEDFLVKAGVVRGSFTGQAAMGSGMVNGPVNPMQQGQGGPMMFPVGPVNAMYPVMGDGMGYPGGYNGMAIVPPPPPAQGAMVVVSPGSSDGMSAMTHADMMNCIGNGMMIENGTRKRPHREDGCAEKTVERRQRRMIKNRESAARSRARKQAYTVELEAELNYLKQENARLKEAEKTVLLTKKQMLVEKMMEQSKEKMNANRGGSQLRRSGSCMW
# B1: MBP::OsJAZ6 fusion protein (protein)
# chain: MASAKSGERGSSSFAMACSLLSRYVRQNGAAAGELGLGIRGEADANKGKETMELFPQNSGFGSEAAAVKETPDAREQEKRQLTIFYGGKVLVFDDFPAEKAKDLMQMASKSSSTAQNCVLLPSSATATVADNTKVSAVPAPASALPVAQANAPKPVRPNAADLPQARKASLHRFLEKRKDRLQAKAPYQGSPSDASPVKKELQESQPWLGLGPQVAAPDLSLRQESSQ
# B2: MBP::OsJAZ7 fusion protein (protein)
# chain: MAASARPVGVGGERATSFAMACSLLSRYVRQNGAAAAELGLGIRGEGEAPRAAPATMSLLPGEAERKKETMELFPQSAGFGQQDAITADSAADAREQEPEKRQLTIFYGGKVLVFNDFPADKAKGLMQLASKGSPVAPQNAAAPAPAAVTDNTKAPMAVPAPVSSLPTAQADAQKPARANASDMPIARKASLHRFLEKRKDRLNAKTPYQASPSDATPVKKEPESQPWLGLGPNAVVKPIERGQ
# Molecular target: T1, GST::OsABI5 fusion protein
# Assay: GST pull-down
row,Binder,binding result
1,B1,binds
2,B2,binds

# Reference: article PMC10121563 (2023)
